This is an account of results in US20220024982A1 (Bicycle, published 2022).

Test [1] deals with T1, MT1-MMP Hemopexin domain (PEX) (UniProt P50281 319-511).
T1 construct: domain: Hemopexin domain (PEX); Target of the fluorescence polarisation assays; also called hemopexin of MT1-MMP; MMP14
Nature of the test: FP competition, plate 1, tracer not named.

The target in test [2] is T1, MT1-MMP Hemopexin domain (PEX). Nature of the test: FP competition vs tracer 17-88-N006. How it is done:
(§1) Subsequently, the non-fluorescent competitor bicyclic peptide (usually just the bicycle core sequence) is titrated, such that it displaces the fluorescent tracer from the target protein. The displacement of the tracer is measured and associated with a drop in fluorescence polarisation. The drop in fluorescence polarisation is proportional to the fraction of target protein bound with the non-fluorescent titrant, and thus is a measure of the affinity of titrant to target protein.
(§2) The raw data is fit to the analytical solution of the cubic equation that describes the equilibria between fluorescent tracer, titrant, and binding protein. The fit requires the value of the affinity of fluorescent tracer to the target protein, which can be determined separately by direct binding FP experiments (see previous section).

Test [3] shares this target. In words: FP competition vs tracer 17-69-07-N040.
From the text: (§3) Here, a pre-formed complex of PEX with the fluorescent PEX-binding tracer is titrated with free, non-fluoresceinated bicyclic peptide. Since all 17-69-based peptides are expected to bind at the same site, the titrant will displace the fluorescent tracer from PEX. Dissociation of the complex can be measured quantitatively, and the Kd of the competitor (titrant) to the target protein determined. The advantage of the competition method is that the affinities of non-fluoresceinated bicyclic peptides can be determined accurately and rapidly.
as §1, §2

For test [4] the target is unchanged. Nature of the test: FP competition vs tracer 17-69-07-N041.
From the text: as §3, §1, §2

For test [5] the target is unchanged. Nature of the test: FP direct binding.
Test [6] deals with T2, human MT1 MMP14 protein, hemopexin domain (obtained from Merck Millipore) (human, UniProt P50281 319-511, limits assumed, randomly biotinylated (EZ-Link Sulfo-NHS-LC-LC-Biotin)).
T2 construct: domain: hemopexin domain; Target of the SPR assay, captured on streptavidin; also called biotinylated MT1 MMP14
Nature of the test: SPR, biotinylated target on streptavidin chip. The method, then:
Streptavidin was immobilized on the chip using standard amine-coupling chemistry at 25° C. with HBS-N (10 mM HEPES, 0.15 M NaCl, pH 7.4) as the running buffer. […] Buffer was changed to PBS/0.05% Tween 20 and a dilution series of the peptides was prepared in this buffer with a final DMSO concentration of 0.5%. […] Data were corrected for DMSO excluded volume effects. All data were double-referenced for blank injections and reference surface using standard processing procedures and data processing and kinetic fitting were performed using Scrubber software, version 2.0c (BioLogic Software).

Numbered stars: 1 amine (or outer) side, 2 acyl side, 3 side chain; on linkers, the order of the positions; unused ones are H or OH. Bridge positions count the residues as written; N and C are the ends. Square brackets hold non-standard residues; d marks the D form. Ends that are not written are not given here. TATA = O=C(CC[*:1])N1CN(C(=O)CC[*:2])CN(C(=O)CC[*:3])C1; fluorescein = fluorescein (fluorescent label, [FI]); 2Nal = N[C@@H](Cc1ccc2ccccc2c1)C(=O)O; TBMB = c1c(C[*:1])cc(C[*:3])cc1C[*:2]; hArg = N=C(N)NCCCC[C@H](N)C(=O)O; Tle = CC(C)(C)[C@H](N)C(=O)O; Sar = CNCC(=O)O Some results are limits rather than exact numbers.

In general, Ki refers to the dissociation constant of the complex between target and ligand, obtained from inhibition or displacement. Low readings indicate a stronger hold on the target, high ones a looser hold on the target. In test [1], Ac-LPPC[Tle][hArg]ECALLFP[hArg]TC (linker 4-8-16 via TATA) [BCY11149] had a Ki of 80 nM.

What is called Kd is the concentration at which binding is half-saturated. The low end stands for higher affinity, the high end for lower affinity. With ACYEECRLLFPRTCA (linker 2-6-14 via TATA) [17-120-21], the Kd in test [2] is greater than 82.8 nM.

In test [3], ACDSPEECFYPLECA (linker 2-8-14 via TATA) [17-122-04] came in with a Kd greater than 2100 nM.

For ACEEEFYPCGHPLYVCA (linker 2-9-16 via TATA) [17-126-01], in test [4], the Kd is greater than 316 nM.

In test [5], ACPYSWETCLFGDYRCA[Sar][Sar][Sar][Sar][Sar][Sar]K(fluorescein) (linker 2-9-16 via TBMB) [17-88-N006] yielded a Kd of 14 nM.

Molecule ACPYDWATCLFGDYRCA[Sar][Sar][Sar][Sar][Sar][Sar]K(fluorescein) (linker 2-9-16 via TBMB) [17-88-226-N002] displayed a Kd in test [5] of 50 nM.

In test [3], ACEEAFYPCHHPLYRCA (linker 2-9-16 via TATA (inferred)) [17-126-25] came in with a Kd greater than 139 nM.

Take fluorescein-G[Sar][Sar][Sar][Sar][Sar]ACYNEFACEDFYDICA (linker 8-14-21 via TBMB, fluorescent tracer) [17-69-07-N041]: the affinity in test [5], expressed as Kd, was 3.4 nM.

Take fluorescein-G[Sar][Sar][Sar][Sar][Sar]ACMNQFGCEDFYDICA (linker 8-14-21 via TBMB, fluorescent tracer) [17-69-12-N004]: the affinity in test [5], expressed as Kd, was 1 nM.

Regarding Ac-LPPCV[hArg]ECALL[2Nal]P[hArg]TC (linker 4-8-16 via TATA) [BCY10223], binding in test [6] was put at a Kd of 400 nM.

For ACYNEFGCEDFYDICA[Sar][Sar][Sar][Sar][Sar][Sar]K(fluorescein) (linker 2-8-15 via TBMB, fluorescent tracer) [17-69-07-N040], in test [5], binding was put at a Kd of 0.52 nM.

ACKEPQECFYPLKCA (linker 2-8-14 via TATA) [17-122-03] yielded a Kd in test [3] greater than 378 nM.

With ACVEEFYPCDHPLYSCA (linker 2-9-16 via TATA) [17-126-03], in test [4], the Kd was greater than 430 nM.

In test [4], ACEEQFYPCTHALYTCA (linker 2-9-16 via TATA) [17-126-02] came in with a Kd greater than 282 nM.

Turning to ACDEQFYPCNHRLNTCA (linker 2-9-16 via TATA (inferred)) [17-126-24], the Kd in test [3] is 200 nM.

ACLEPDECFYPMECA (linker 2-8-14 via TATA) [17-122-02] yielded a Kd in test [3] greater than 929 nM.

With ACADECRLLFPKTCA (linker 2-6-14 via TATA) [17-120-05], the Kd in test [3] is greater than 280 nM.
